Tests used:
PH domain of AKT = PH domain of AKT (UniProt P31749); assay: SPR
PH domain of PDK1 = PH domain of PDK1 (UniProt O15530); assay: SPR
Chain of UniProt O15530 (O15530 459-550): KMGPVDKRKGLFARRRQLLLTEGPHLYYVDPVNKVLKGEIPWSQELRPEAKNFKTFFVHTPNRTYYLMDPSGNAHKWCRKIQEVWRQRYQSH

- Kd (PH domain of AKT): 0.0376 µM
- Kd (PH domain of PDK1): 0.0498 µM
Substance: PH domain of AKT (from UniProt P31749 5-108) (domain or fragment)

Source: paper PMC4091980
